In US20170281792A1 (Genentech, published 2017):

T1: gD epitope-tagged mouse mesothelin expressed on cells (construct #385) (mouse, UniProt Q61468 298-582)
T1 sequence: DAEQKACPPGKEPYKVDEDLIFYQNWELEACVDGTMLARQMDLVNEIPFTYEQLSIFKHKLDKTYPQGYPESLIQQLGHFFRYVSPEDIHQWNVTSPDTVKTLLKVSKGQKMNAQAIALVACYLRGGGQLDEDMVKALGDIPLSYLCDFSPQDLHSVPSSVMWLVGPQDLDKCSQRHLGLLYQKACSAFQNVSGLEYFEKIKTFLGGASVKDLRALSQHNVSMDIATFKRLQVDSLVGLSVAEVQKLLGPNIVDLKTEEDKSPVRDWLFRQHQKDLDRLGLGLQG

T2: gD epitope-tagged cynomolgus monkey mesothelin expressed on cells (construct #383) (cynomolgus monkey)
T2 construct: also called cyno mesothelin
T2 chain: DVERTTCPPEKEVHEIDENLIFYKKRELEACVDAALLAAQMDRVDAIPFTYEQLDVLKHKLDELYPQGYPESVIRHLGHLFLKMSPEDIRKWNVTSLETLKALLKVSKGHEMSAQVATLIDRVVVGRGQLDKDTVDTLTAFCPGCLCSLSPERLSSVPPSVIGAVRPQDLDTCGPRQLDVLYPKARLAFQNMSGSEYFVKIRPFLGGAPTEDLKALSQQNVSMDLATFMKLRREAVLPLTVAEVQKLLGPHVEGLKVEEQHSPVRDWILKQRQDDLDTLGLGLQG

T3: gD epitope-tagged rat mesothelin expressed on cells (rat, UniProt Q9ERA7 298-582)
T3 sequence: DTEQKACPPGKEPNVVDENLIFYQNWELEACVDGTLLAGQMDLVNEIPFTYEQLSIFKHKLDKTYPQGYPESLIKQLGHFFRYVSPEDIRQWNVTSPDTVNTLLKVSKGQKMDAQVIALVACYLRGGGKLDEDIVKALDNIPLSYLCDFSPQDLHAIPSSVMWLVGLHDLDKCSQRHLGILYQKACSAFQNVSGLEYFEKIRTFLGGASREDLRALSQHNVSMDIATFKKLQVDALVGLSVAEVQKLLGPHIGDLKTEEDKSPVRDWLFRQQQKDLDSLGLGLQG

T4: endogenous rat mesothelin on the normal pleural cell line 4/4-RM4 (rat, UniProt Q9ERA7 298-582)
T4 sequence: T3 sequence

B1: mouse monoclonal antibody 7D9 (antibody, V domains shown)
VH: QVQLQQSGAELAKPGASVKMSCKASGYTFTTYWMHWVKQRPGQGLEWIGYIRPSTGYTEYNQKFKDKATLTADKSSSTAYMQLSSLTSEDSTVYYCARSRWLLDYWGQGTSLTVS
VL: DIMMTQSPSSLAVSAGEKVTMSCKSSQSVLYSSNQKNYLAWFQQKPGQSPKLLIYWASTRESGVPDRFTGSGSGTDFTLTISSVQAEDLAVYFCHQYLSSYTFGGGTKVEIK
notes: also called m7D9; mu7D9
B2: humanized monoclonal antibody 22A10.v83 (antibody, V domains shown)
VH: EVQLVESGGGLVQPGGSLRLSCAASGFTFSDYFMSWVRQAPGKGLEWVATISNGGTYTYYPDSVKGRFTISRDNSKNTLYLQMNSLRAEDTAVYYCARFDGYIFDYWGQGTLVTVSS
VL: DIQMTQSPSSLSASVGDRVTITCRASQDISNYLNWYQQKPGKAPKLLIYYTSRLHSGVPSRFSGSGSGTDFTLTISSLQPEDFATYYCQQGNTLPYTFGQGTKVEIKR
notes: also called h22A10.v83; hu22A10.v83
B3: humanized monoclonal antibody 7D9.v3 (antibody, V domains shown)
VH: EVQLVESGGGLVQPGGSLRLSCAASGYTFTTYWMHWVRQAPGKGLEWVGYIRPSTGYTEYNQKFKDRFTISADTSKNTAYLQMNSLRAEDTAVYYCARSRWLLDYWGQGTLVTVS
VL: DIQMTQSPSSLSASVGDRVTITCKSSQSVLYSSNQKNYLAWFQQKPGKAPKLLIYWASTRESGVPSRFSGSGSGTDFTLTISSLQPEDFATYFCHQYLSSYTFGQGTKVEIKR
notes: also called h7D9.v3; hu7D9.v3

Assays:
[1] = target: T1, gD epitope-tagged mouse mesothelin …; assay: FACS on transiently transfected 293 cells
[2] = target: T2, gD epitope-tagged cynomolgus monkey …; assay: FACS on transiently transfected 293 cells
[3] = target: T5, E. coli derived recombinant human mesothelin (human, UniProt Q13421 296-580); assay: Biacore (column 'Kd (nM) Biacore'); antigen preparation not given, the filing's Biacore assays use E. coli derived human mesothelin
T5 construct: not shown: N-terminal unizyme His (HQ)-tag

[4] = target: T6, human mesothelin on cells (endogenous on tumour cell lines and tissue, or stably expressed on A431 or HT1080 … (human, UniProt Q13421 296-580)); assay: Scatchard analysis (125I-labelled antibody) on HPAC cells, endogenous mesothelin
T6 construct: also called endogenous mesothelin; endogenous human mesothelin
Procedure: (§1) The data was analyzed with non-linear regression curve fitting in the New Ligand program (Genentech, Inc., South San Francisco, Calif.) to estimate Kd values (Munson et al., Anal. Biochem., 107 220-239 (1980)).

[5] = target: T2, gD epitope-tagged cynomolgus monkey …; assay: Scatchard analysis on BJAB cells stably expressing gD-tagged cyno mesothelin
[6] = target: T2, gD epitope-tagged cynomolgus monkey …; assay: Scatchard analysis (125I-labelled antibody), row 'Cyno BJAB', stably transfected cells
Procedure: as §1

[7] = target: T2, gD epitope-tagged cynomolgus monkey …; assay: Scatchard analysis (125I-labelled antibody), row 'Cyno 293', stably transfected cells
Procedure: as §1

[8] = target: T6, human mesothelin on cells (endogenous …); assay: Scatchard analysis (125I-labelled antibody) on OvCar3 cells, endogenous mesothelin
Procedure: as §1

[9] = target: T3, gD epitope-tagged rat mesothelin …; assay: Scatchard, 125I-labelled antibody on stably transfected 293 cells
Procedure: as §1

[10] = target: T7, gD epitope-tagged human mesothelin expressed on cells (construct #387) (human, UniProt Q13421 296-580); assay: as above
T7 construct: also called gD-human mesothelin; gD-tagged human mesothelin
Procedure: as §1

[11] = target: T6, human mesothelin on cells (endogenous …); assay: Scatchard analysis (125I-labelled antibody) on Capan2 cells, endogenous mesothelin
Procedure: as §1

[12] = target: T6, human mesothelin on cells (endogenous …); assay: Scatchard; endogenous human mesothelin on cell lines
Procedure: as §1

[13] = target: T7, gD epitope-tagged human mesothelin …; assay: Scatchard, 125I-labelled antibody on stably transfected HT1080 cells
Procedure: as §1

[14] = target: T6, human mesothelin on cells (endogenous …); assay: Scatchard analysis (125I-labelled antibody) on AsPC1 cells, endogenous mesothelin
Procedure: as §1

[15] = target: T2, gD epitope-tagged cynomolgus monkey …; assay: Scatchard analysis (125I-labelled antibody), row 'Cyno HT1080', stably transfected cells
Procedure: as §1

[16] = target: T3, gD epitope-tagged rat mesothelin …; assay: Scatchard, 125I-labelled antibody on stably transfected BJAB cells
Procedure: as §1

[17] = target: T7, gD epitope-tagged human mesothelin …; assay: as above
Procedure: as §1

[18] = target: T1, gD epitope-tagged mouse mesothelin …; assay: FACS on stably transfected 293 cells
Procedure: Monoclonal antibodies were tested to determine if they cross-react with mesothelin from species other than human. […] Shaded residues are identical between at least two species. Unshaded residues differ between at least two of the four species. […] Anti-gD staining verified that mouse mesothelin was indeed expressed.

[19] = target: T6, human mesothelin on cells (endogenous …); assay: Scatchard analysis (125I-labelled antibody) on OvCar3x2.1 cells, endogenous mesothelin
Procedure: as §1

[20] = target: T6, human mesothelin on cells (endogenous …); assay: Scatchard analysis (125I-labelled antibody) on HPAF-II cells, endogenous mesothelin
Procedure: as §1

[21] = target: T4, endogenous rat mesothelin on the normal …; assay: Scatchard on the normal rat pleural cell line 4/4-RM4
Procedure: as §1

[22] = target: T2, gD epitope-tagged cynomolgus monkey …; assay: immunoprecipitation from BJAB cells stably expressing gD-tagged cyno mesothelin, Western blot with murine anti-gD
[23] = target: T3, gD epitope-tagged rat mesothelin …; assay: immunoprecipitation from BJAB cells stably expressing gD-tagged rat mesothelin, Western blot with murine anti-gD
[24] = target: T5, E. coli derived recombinant human …; assay: Biacore-2000, IgG over immobilised E. coli derived human mesothelin, 1:1 fit
Procedure: 7D9 variants were expressed as IgG by CHO transient transfection. IgG was purified with protein G affinity chromatography. The affinity of each 7D9 IgG variant for human mesothelin was determined by surface plasmon resonance using a BIACORE™-2000. BIACORE™ research grade CM5 chips were immobilized with approximately 110 RU of E. coli derived recombinant human mesothelin using the amine coupling kit from BIACORE™. […] Each sample was analyzed with 5-minute association and 3.5-minute dissociation. After each injection the chip was regenerated using 10 mM Glycine pH 1.7. Binding response was corrected by subtracting the RU from a flow cell with an irrelevant IgG immobilized at similar density. A 1:1 Languir model of simultaneous fitting of kₒₙ and koff was used for kinetics analysis.

[25] = target: T8, C-terminally his-tagged human mesothelin expressed in CHO cells (Mono S fractions A11, A12, B1, B5) (human, UniProt Q13421 296-580); assay: SPR: each Mono S fraction (A11, A12, B1, B5) flowed over a chip with prebound h7D9.v3
T8 construct: also called glycosylated mesothelin; not shown: C-terminal his tag
Excerpt: To determine whether h7D9.v3 binds to glycosylated mesothelin, C-terminally his-tagged human mesothelin was expressed in CHO cells, purified and further separated according to charge on a Mono S column into fractions with high (fraction A11), medium (A12), low (B1) and low-to-none (B5) glycosylation of mesothelin, as shown by Coomassie Blue staining on an SDS-PAGE gel. (FIG. 20, top left). […] (FIG. 20, right).

[26] = target: T6, human mesothelin on cells (endogenous …); assay: Scatchard; range for endogenous mesothelin in four pancreatic and two ovarian cell lines
Procedure: as §1

T7 sequence (Q13421 other isoform, or with tags, fused parts or gaps): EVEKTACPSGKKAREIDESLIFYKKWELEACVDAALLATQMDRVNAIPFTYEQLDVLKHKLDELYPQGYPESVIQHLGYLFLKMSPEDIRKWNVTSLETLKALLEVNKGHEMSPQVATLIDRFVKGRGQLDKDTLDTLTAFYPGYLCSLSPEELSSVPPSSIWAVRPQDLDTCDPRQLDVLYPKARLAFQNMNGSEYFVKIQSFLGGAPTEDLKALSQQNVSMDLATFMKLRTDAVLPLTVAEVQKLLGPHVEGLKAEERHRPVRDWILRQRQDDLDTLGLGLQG
T6 sequence (Q13421 other isoform, or with tags, fused parts or gaps): as above
T5 sequence (Q13421 other isoform, or with tags, fused parts or gaps): as above
T8 sequence (Q13421 other isoform, or with tags, fused parts or gaps limits assumed): as the sequence (Q13421 other isoform, or with tags, fused parts or gaps) above

Binder	Kd [4] [nM]	Kd [8] [nM]	Kd [10] [nM]	Kd [11] [nM]	Kd [13] [nM]	Kd [14] [nM]	Kd [17] [nM]	binding result [18]	Kd [19] [nM]	Kd [20] [nM]	further results
B1											binding result [1]: no binding (tested: 0.02 µg/ml); binding result [2]: no binding (tested: 0.02 µg/ml); Kd [3]: 0.23 nM
B2	9.4	9.2	2.7	4.2	6.2	9.3	1.8	no binding (tested: 10 µg/ml)	9	10.4	Kd [5]: 1.3 nM; Kd [6]: 1.3 nM; Kd [7]: 4.3 nM; Kd [9]: 7.3 nM; Kd [12]: 9 to 10 nM; Kd [15]: 6.4 nM; Kd [16]: 2.7 nM; Kd [21]: 6.2 nM
B3	1	0.53	0.2	0.63	0.97	0.58	0.25	no binding (tested: 10 µg/ml)	0.56	0.41	binding result [22]: no binding; binding result [23]: no binding; Kd [24]: 1.9 nM; Kd [25]: 1.5 nM; Kd [26]: 0.41 to 1 nM
